The results in this text go back to the RNAGym collection of RNA variant scans (doi:10.1021/acssynbio.7b00057).

B1: Pistol ribozyme (parent)
chain: GGGUCGUUGUUCCAUAAUCGCGUGGAUAUGGCACGCAAGUUUCUACCGGGCACCGUAAAUGUCCGACUGGAGCCGUUCGGGCGGCUAUAAACAGACCUCAGGCCCGAAGCGUGGCGGCACCUGCCGCCGGUGGUAAAAAAGAUCGGAAGAGCACACGUCU

Variants of B1 are the subject of the series. The series is described as follows: aptazyme ON/OFF ratio, guanine; higher = stronger switching; co-transcriptional cleavage with and without guanine.
In the case of U8A U10C U11C C12U C13G, the “aptazyme ON/OFF ratio” value was 1.06.
The figure for U8A U10C U11C C12U C13A is 1.05; for U8A U10A U11A C12G it is 1.07.
The result for U8A U10A U11A C12U reads 1.09; that for U8A U10A U11A C12A, 1.14; that for U8C C12G C13G, 1.15.
The figure for U8C C12G C13U is 1.31; for U8C C12G C13A it is 1.19.
Take U8A U11A C12A: the “aptazyme ON/OFF ratio” value came to 1.07.
The figure for U8A U11A C12U is 1.19.
Consider U8A U11A C12G, for which the “aptazyme ON/OFF ratio” value stood at 1.2.
The figure for U8A U10A U11A C12U C13G is 1.09; for U8A U10A U11A C12U C13U it is 1.17; for U8A U10A U11A C12U C13A it is 1.2.
Regarding U8A U10C C12U C13G, the “aptazyme ON/OFF ratio” value stood at 1.11.
U8A U10C C12U C13A: the “aptazyme ON/OFF ratio” value worked out at 1.22.
The result for U8A U10C C12U C13U reads 1.35; that for U8A U10G U11G C13A, 1.33.
The result for U8A U10G U11G C13G reads 1.28; that for U8A U10G U11G C13U, 1.3.
The figure for U8A U10C U11G C12G C13U is 1.14.
Take U8A U10C U11G C12G C13G: the “aptazyme ON/OFF ratio” value is 1.26.
The result for U8A U10C U11G C12G C13A reads 1.29.
The result for U8A U10C U11C C12G C13G reads 1.1; that for U8A U10C U11C C12G C13A, 1.21; that for U8A U10C U11C C12G C13U, 1.11.
Consider U8A U10G C12U C13U, for which the “aptazyme ON/OFF ratio” value came out at 1.36.
The result for U8A U10G C12U C13G reads 1.23.
The result for U8A U10G C12U C13A reads 1.32; that for U8C G9A U10C C12A C13G, 1.18; that for U8C G9A U10C C12A C13A, 1.27.
The result for U8C G9A U10C C12A C13U reads 1.33; that for U8C G9A U10A U11A C12U C13A, 1.28; that for U8C G9A U10A U11A C12U C13U, 1.19.
For U8C G9A U10A U11A C12U C13G, the “aptazyme ON/OFF ratio” value stood at 1.18.
With U8A U10A U11A C12A C13U, the “aptazyme ON/OFF ratio” value stood at 1.11.
In the case of U8A U10A U11A C12A C13G, the “aptazyme ON/OFF ratio” value worked out at 1.04.
With U8A U10A U11A C12A C13A, the “aptazyme ON/OFF ratio” value is 1.21.
The result for U8C G9A C12U reads 1.38; that for U8C G9A C12A, 1.35.
The figure for U8C G9A C12G is 1.26; for U8A U10C U11A C12U C13G it is 1.23.
As to U8A U10C U11A C12U C13A, the “aptazyme ON/OFF ratio” value came to 1.16.
The figure for U8A U10C U11A C12U C13U is 1.31; for U8A U10G U11A C12U it is 1.12; for U8A U10G U11A C12A it is 1.06.
The figure for U8A U10G U11A C12G is 1.1; for U8A U10G U11A C13U it is 1.13.
As to U8A U10G U11A C13A, the “aptazyme ON/OFF ratio” value is 1.07.
The figure for U8A U10G U11A C13G is 1.12; for U8A U11G C12G C13G it is 1.27.
As to U8A U11G C12G C13U, the “aptazyme ON/OFF ratio” value stood at 1.47.
The result for U8A U11G C12G C13A reads 1.17; that for U8C G9A U10A U11A C12A C13U, 1.3; that for U8C G9A U10A U11A C12A C13G, 1.15.
The figure for U8C G9A U10A U11A C12A C13A is 1.15.
Turning to U8A U10G U11C C12U C13G, the “aptazyme ON/OFF ratio” value was 1.27.
U8A U10G U11C C12U C13A: the “aptazyme ON/OFF ratio” value turned out to be 1.3.
The figure for U8A U10G U11C C12U C13U is 1.2; for U8A U10C U11A C13G it is 1.07; for U8A U10C U11A C13U it is 1.07.
The result for U8A U10C U11A C13A reads 1.17.
The figure for U8C C13G is 1.11; for U8C C13U it is 1.55; for U8C C13A it is 1.36.
Turning to U8C G9A U10A U11C C12A C13G, the “aptazyme ON/OFF ratio” value is 1.18.
The result for U8C G9A U10A U11C C12A C13U reads 1.19; that for U8C G9A U10A U11C C12A C13A, 1.17.
The figure for U8A U10G C12G is 1.29.
In the case of U8A U10G C12A, the “aptazyme ON/OFF ratio” value amounted to 1.31.
The figure for U8A U10G C12U is 1.58.
The result for U8C G9A U10A U11A C12G C13G reads 1.17; that for U8C G9A U10A U11A C12G C13A, 1.15; that for U8C G9A U10A U11A C12G C13U, 1.21.
Consider U8A U11C C12G C13G, for which the “aptazyme ON/OFF ratio” value amounted to 1.32.
The result for U8A U11C C12G C13A reads 1.31; that for U8A U11C C12G C13U, 1.12.
Turning to U8A U10C U11A C12G C13A, the “aptazyme ON/OFF ratio” value is 1.15.
The result for U8A U10C U11A C12G C13G reads 1.39; that for U8A U10C U11A C12G C13U, 1.34.
The result for U8A U10G U11C C12U reads 1.04; that for U8A U10G U11C C12A, 1.49; that for U8A U10G U11C C12G, 1.53.
The result for U8A U10A U11G C12G C13U reads 1.27.
For U8A U10A U11G C12G C13A, the “aptazyme ON/OFF ratio” value was determined as 1.06.
As to U8A U10A U11G C12G C13G, the “aptazyme ON/OFF ratio” value was found to be 1.15.
In the case of U8A U10G, the “aptazyme ON/OFF ratio” value came to 1.62.
The result for U8A U10C reads 4.03; that for U8A U11G C12U C13G, 1.1.
The result for U8A U11G C12U C13A reads 1.14.
For the variant U8A U11G C12U C13U, the “aptazyme ON/OFF ratio” value was 1.11.
The result for U8A U11C C12A C13U reads 1.38; that for U8A U11C C12A C13A, 1.24.
The figure for U8A U11C C12A C13G is 1.17.
The figure for U8C G9A U10A U11G C12A is 1.04.
In the case of U8C G9A U10A U11G C12U, the “aptazyme ON/OFF ratio” value is 1.26.
The result for U8C G9A U10A U11G C12G reads 1.12; that for U8A U10A U11G C13U, 1.13.
As for U8A U10A U11G C13G, the “aptazyme ON/OFF ratio” value was determined as 1.14.
The result for U8A U10A U11G C13A reads 1.18; that for U8A U10C C12U, 3.12.
As to U8A U10C C12G, the “aptazyme ON/OFF ratio” value worked out at 1.3.
Consider U8A U10C C12A, for which the “aptazyme ON/OFF ratio” value was 1.31.
The result for U8C G9A U10A U11C C12U C13G reads 1.14; that for U8C G9A U10A U11C C12U C13A, 1.13.
The result for U8C G9A U10A U11C C12U C13U reads 1.14; that for U8A U10G U11G C12G C13U, 1.32; that for U8A U10G U11G C12G C13A, 1.45.
The figure for U8A U10G U11G C12G C13G is 1.06.
On to U8C G9A, for which the “aptazyme ON/OFF ratio” value was determined as 1.78.
The result for U8A U10C U11G reads 1.18; that for U8A U10C U11A, 1.15; that for U8A U10C U11C, 1.01.
The figure for U8C G9A U10A U11G C13A is 1.19; for U8C G9A U10A U11G C13U it is 1.18; for U8C G9A U10A U11G C13G it is 1.08.
U8C G9A U10C: the “aptazyme ON/OFF ratio” value amounted to 3.49.
The result for U8C G9A U10A reads 1.78.
The result for U8C G9A U10A U11A C13U reads 1.28.
As for U8C G9A U10A U11A C13A, the “aptazyme ON/OFF ratio” value was determined as 1.17.
The figure for U8C G9A U10A U11A C13G is 1.07; for U8C G9A U10A U11C it is 1.05.
The result for U8C G9A U10A U11A reads 1.47; that for U8C G9A U10A U11G, 1.45.
On to U8A U10C U11G C12A, for which the “aptazyme ON/OFF ratio” value was determined as 1.09.
The result for U8A U10C U11G C12U reads 1.37.
The figure for U8A U10C U11G C12G is 1.23; for U8A U11C C12U C13A it is 1.38; for U8A U11C C12U C13U it is 1.37.
The result for U8A U11C C12U C13G reads 1.33.
As to U8C G9A U10A C13U, the “aptazyme ON/OFF ratio” value came out at 1.42.
The result for U8C G9A U10A C13A reads 1.17.
The result for U8C G9A U10A C13G reads 1.05; that for U8A U11A C12U C13A, 1.23; that for U8A U11A C12U C13U, 1.18.
The figure for U8A U11A C12U C13G is 1.21; for U8C G9A U10A U11G C12U C13G it is 1.18; for U8C G9A U10A U11G C12U C13U it is 1.23.
For U8C G9A U10A U11G C12U C13A, the “aptazyme ON/OFF ratio” value is 1.18.
The result for U8A U10C C12A C13G reads 1.11.
In the case of U8A U10C C12A C13U, the “aptazyme ON/OFF ratio” value is 1.26.
The figure for U8A U10C C12A C13A is 1.23; for U8C G9A U10A C12U C13G it is 1.24.
Take U8C G9A U10A C12U C13U: the “aptazyme ON/OFF ratio” value amounted to 1.33.
For U8C G9A U10A C12U C13A, the “aptazyme ON/OFF ratio” value stood at 1.16.
The figure for U8C is 3.02; for U8A U10G U11A C12A C13A it is 1.3.
The figure for U8A U10G U11A C12A C13U is 1.11.
The figure for U8A U10G U11A C12A C13G is 1.15; for U8A U10G U11G C12A C13G it is 1.15.
For U8A U10G U11G C12A C13A, the “aptazyme ON/OFF ratio” value turned out to be 1.18.
U8A U10G U11G C12A C13U: the “aptazyme ON/OFF ratio” value was 1.44.
Turning to U8A U11C C13U, the “aptazyme ON/OFF ratio” value came out at 1.09.
The result for U8A U11C C13G reads 1.08; that for U8A U11C C13A, 1.13; that for U8A U11A C12A C13U, 1.25.
For U8A U11A C12A C13A, the “aptazyme ON/OFF ratio” value came to 1.15.
The figure for U8A U11A C12A C13G is 1.16.
The result for U8A U10A U11C C12U reads 1.01; that for U8A U10A U11C C12G, 1.08.
As to U8A U10A U11C C12A, the “aptazyme ON/OFF ratio” value was found to be 1.09.
The result for U8A U10G U11C C12A C13U reads 1.21; that for U8A U10G U11C C12A C13A, 1.26; that for U8A U10G U11C C12A C13G, 1.14.
The result for U8A U10G U11C reads 1.02; that for U8A U10G U11G, 1.16.
The figure for U8A U10G U11A is 1.09.
